Data taken from the DeepSol protein solubility set.

Assay: soluble on expression in E. coli; label from the status in PepcDB or PDB records

For “MYSEERRRQIASLTAVEGRVNVTELAARFDVTAETIRRDLAVLDREGVVHRVHGGAVANQTFQTAEFSLDTRSRSASGAKNSIAHAALSYLPEAQGGLFLDAGTTTAALAELLAAQPFAKHWSIVTNSLSIALTLANSGLDEIQLLGGSVRAITQAVVGDTALRTLALMRADVAFIGTNALTIDHGLSTADSQEAAIKSAMITNAHKVVVLCDSTKMGTDYLVSFGSISDIDVIITDANAPESFVKALRDRDVEVIIA”, which “soluble on expression in E. coli” value is on record?
Its value is “not soluble”.

Which “soluble on expression in E. coli” value does the source give for “AHHHHHHGSKRVNAFNDLKRIGDDKVTAIGMGTWGIGGRETPDYSRDKESIEAIRYGLELGMNLIDTAEFYGAGHAEEIVGEAIKEFEREDIFIVSKVWPTHFGYEEAKKAARASAKRLGTYIDLYLLHWPVDDFKKIEETLHALEDLVDEGVIRYIGVSNFNLELLQRSQEVMRKYEIVANQVKYSVKDRWPETTGLLDYMKREGIALMAYTPLEKGTLARNECLAKIGEKYGKTAAQVALNYLIWEENVVAIPKASNKEHLKENFGAMGWRLSEEDREMARRCV” here?
Its value is “soluble”.

For “MRATVSGKTTTILPLLSKLIVIVIKSTSIHCSTLTSSGLFDSTAPRVFKNLVNYGGDMWFYMKPYPSNGKSGSQQMENVYQGLKSAQIKFSHITQHGISVQFFTSQSNWHSITNNNRSFSSYKLWWAHTNGAGNGGATSPNFEGFVSFGGWTSSSLVGKEYARQVQECGVTVNKYVYVK”, which “soluble on expression in E. coli” value is on record?
The value was “not soluble”.

Which “soluble on expression in E. coli” value does the source give for “MATKARVMYDFAAEPGNNELTVNEGEIITITNPDVGGGWLEGRNIKGERGLVPTDYVEILPSDGKDQFSCGNSVADQAFLDSLSASTAQASSSAASNNHQVGSGNDPWSAWSASKSGNWESSEGWGAQPEGAGAQRNTNTPNNWDTAFGHPQAYQGPATGDDDDWDEDWDGPKSSSYFKDSESADAGGAQRGNSRASSSSMKIPLNKFPGFAKPGTEQYLLAKQLAKPKEKIPIIVGDYGPMWVYPTSTFDCVVADPRKGSKMYGLKSYIEYQLTPTNTNRSVNHRYKHFDWLYERLLVKFGSAIPIPSLPDKQVTGRFEEEFIKMRMERLQAWMTRMCRHPVISESEVFQQFLNFRDEKEWKTGKRKAERDELAGVMIFSTMEPEAPDLDLVEIEQKCEAVGKFTKAMDDGVKELLTVGQEHWKRCTGPLPKEYQKIGKALQSLATVFSSSGYQGETDLNDAITEAGKTYEEIASLVAEQPKKDLHFLMECNHEYKGFLGCFPDIIGTHKGAIEKVKESDKLVATSKITLQDKQNMVKRVSIMSYALQAEMNHFHSNRIYDYNSVIRLYLEQQVQFYETIAEKLRQALSRFPVM” here?
The value was “soluble”.

Which “soluble on expression in E. coli” value does the source give for “MNDVVLSCKNVSKKYTEFKTDIAILKDVNLEIKKGEKVAILGLSGSGKTTLLNVLGGLDKCSAGEVYLMGERFDNQSVNKRAKMRNKHLGFIYQLHHLLPEFTAIENVMIPLAITKKYTKKESIKLANEILKKVGLDHRADHKPAELSGGERQRVAIARALVTNPNCILADEPTGNLDSQRSESIFALMQQLSDDFGTSFVIVTHDEKLASRMNKIYRLVDGELELVINSN” here?
The value was “not soluble”.

With “MPEQSIEMTPDSSVYKALLESTKAIPWKINWQTMAFEYIGPQIEALLGWPQGSWKSVEDWATRMHPEDQEWVVNFCVKQSECGVDHEADYRALHRDGHYVWIRDVVHVVRDDSGEVEALIGFMFDISERKKTLEHHHHHH” as the sequence, how does the “soluble on expression in E. coli” value read?
Its value is “not soluble”.

Which “soluble on expression in E. coli” value does the source give for “MYEGTLSMAVQSLGQAVNYCKRFGPRLVATKMLYKLLPQAGFSVCRQIEEYLKHYYLPDVAYHKTEFCGKIQADAPIWVMWWQGEERMPDVVRLAVASMRRFAGRRPVMLITKDNYHDYAKRSVDFYRYVEHGAISLTHFSDYVRFDLLHKYGGFWLDATLLMTAPIPDFVNDLRLFSIKHGTIRPGEQWSPMWSRNWTAYCWGGCAGDPFFDFMLRFFERYHEREGSVMIDYFLIDRIISVAYQEFVDVRNTIDAIPVNNVDVLTSPIVNTASINHRSDDNGTFLHKLSWKEPPQPDCGNGQRSWFGQLLDQYGIRLEHHHHHH” here?
Its value is “not soluble”.

Which “soluble on expression in E. coli” value does the source give for “PRNQMPRIHASSGTTGKPTVVGYTKTDLDNWANLMARSMVGAGASPDDIVHNAYGYGLFTGGLGAHYGAERLGCTVVPASGGGTERQVQLIVDFGANVLCCTPSYALNIAEVAEQMGVSLKDAPLRVGLFGAEPWSDAMRRDLEARLGIKAVDVYGLSEIMGPGVACECH” here?
The value was “not soluble”.

For “MTSIIKLKVFSGAKDEGPLCYLLQVDGDYILLDCGWDERFGLQYFEELKPFIPKISAVLISHPDPLHLGGLPYLVSKCGLTAPVYATVPVYKMGQMFIYDMVYSHLDVEEFEHYTLDDVDTAFEKVEQVKYNQTVVLKGDSGVHFTALPAGHMLGGSIWRICRVTGEDIVYCVDFNHKKERHLNGCSFDNFNRPHLLITGAHHISLPQMRRKDRDEQLVTKILRTVRQKGDCMIVIDTAGRVLELAHLLDQLWSNADAGLSTYNLVMMSHVASSVVQFAKSQLEWMNEKLFKYDSSSARYNPFTLKHVTLCHSHQELMRVRSPKVVLCSSQDMESGFSRELFLDWCSDPRNGVILTARPASFTLAAKLVNMAERANDGVLKHEDRLISLVVKKRVALEGEELLEYKRRKAERDAEETRLRMERARRQAQANESDDSDDDDIAAPIVPRHSEKDFRSFDGSENDAHTFDIMAKWDNQQKASFFKTTKKSFPMFPYIEEKVKWDDYGEVIKPEDYTVISKIDLRKGQNKDEPVVVKKREEEEEVYNPNDHVEEMPTKCVEFKNRVEVSCRIEFIEYEGISDGESTKKLLAGLLPRQIIVVHGSRDDTRDLVAYFADSGFDTTMLKAPEAGALVDASVESFIYQVALSDALLADIQFKEVSEGNSLAWIDARVMEKEAIDNMLAVGTSNLMIDDKNREEDVNDQEENGATEGEGNAEPMEIGENGSQESLAISESGKEVENGHTNDSRTKKGTKGKIRGNLILDPLPKRLIPIHQAVFVNDPKLSDFKNLLTDKGYKAEFLSGTLLINGGNCSIRRNDTGVFQMEGAFTKDYYKLRRLFYDQFAVL”, which “soluble on expression in E. coli” value is on record?
The value was “not soluble”.

For “MMKPIIREAKPQDKPFIEEIAHLTWDGEDYLARVFDEWIKDGNFYVLELNGKVIGTVKLTLLPNRVSWMEGLRVHPNYHGRGFGKMLHNFIVEKGRMMASEGIIDALEFSPYFLNKKIIAMAEKNGFWVKARFFVASVRVGDFKPEEPIRIEPKLEDLTLGIIPVGWRFIKRSEEALEWIRKNAEVYEYNGLKFIGPKKETIFTPLEPGPAVLKALLPAMAWVAREKDKEEFNLMLSSSIKPVLSVFRRIGVYIWDDAKEPNVLVFRKKLKDKKGLIPFVNKWNYNKEY”, which “soluble on expression in E. coli” value is on record?
Its value is “not soluble”.

With “MGSDKIHHHHHHMTEKLVAEKISNRHPAAAPLATGQVPWAIKGELILNCNCTVFCPCVVSLGKHAPTEGYCQAWSGVRIDEGHYGDEDLSGLNVGLMLEIPGLMARGNWKAAAYIDERSSSAAYEGLVNIFSGKARGTTGLFAVLVSEFLGAERAPVIFETEGNARRLMVGKKIQGEIVPVPGKGGADQVVTNTEYWMGPDITVATATKGRVRAFGRVWDFDGRSAEICQIDWSGPR” as the sequence, how does the “soluble on expression in E. coli” value read?
Its value is “not soluble”.

Which “soluble on expression in E. coli” value does the source give for “MLDNVLRIATRQSPLALWQAHYVKDKLMASHPGLVVELVPMVTRGDVILDTPLAKVGGKGLFVKELEVALLENRADIAVHSMKDVPVEFPQGLGLVTICEREDPRDAFVSNNYDSLDALPAGSIVGTSSLRRQCQLAERRPDLIIRSLRGNVGTRLSKLDNGEYDAIILAVAGLKRLGLESRIRAALPPEISLPAVGQGAVGIECRLDDSRTRELLAALNHHETALRVTAERAMNTRLEGGCQVPIGSYAELIDGEIWLRALVGAPDGSQIIRGERRGAPQDAEQMGISLAEELLNNGAREILAEVYNGDAPA” here?
Its value is “soluble”.

With “MGSDKIHHHHHHMALVKCQSLNEIPMTATNHMDTSVQHVDIAIVGGAMAGATLALALARLSLSAARPLSIALIEAHLPDKQHPGFDARSIAIAHGSIFELSRLGLWPKLAHLGTAIENIHVSDRGHFGMTELNAAQFHLDALGQVVELERVGQVLFNELNKSEVKLYCPAKLAQVEPAVEGHTLVLDTGKRLKAKLVVAADGLQSKVRSSFDLPVTQVAFEQTAIIANIQTDKPHQHLAYERFTQTGPLALLPMADSQGKPRLSLVWALDDARAKQMQTAPKAEFLAALQQAFGYRAGTFIDVSARHAYPLNLSYMPRPIHHRCVFIGNAAQTLHPIAGQGFNLGLRDVVSLLEVLKTALDQGDDIGSAAVTHAYLNAREHDRNSTIRNIEFLVRGFSNQYWPMALGRNLGLRLLSWFPPLKTPVAQKAMGWK” as the sequence, how does the “soluble on expression in E. coli” value read?
Its value is “not soluble”.

Which “soluble on expression in E. coli” value does the source give for “MGSDKIHHHHHHMVNHTQFRQWGRKVIDIEKAALDNLYQYVDSVEFDQACQLIMQCKGKVIVMGMGKSGHIGNKISATFASTGTPAFFVHPGEASHGDLGALAKNDIVLAISNSGESSEILTLMPVIQRMGVPVIAVTGKPDSNMARLSKIHLCIQVQEEACPLGLAPTSSTTATLAMGDALAIALLQAKGFTRDDFALSHPGGSLGRKLLLKVDDVMHQGDDLPIVNDDICITDALYEISKKGLGMTAVVDHASKLVGIFTDGDLRRVIDADVNLRTTSIAHVMTKNCVTSPAGILAAQALQIMDEKSINGLIVVNEKHQPIGALNMLDMVKAGVI” here?
Its value is “not soluble”.

With “MGSDKIHHHHHHMKPLPAQAIWFTAPHTVSIREEIAPPPAYGDVRIAAIASLISHGTERLVYRGEVDPTLALDLPTLQGSFAFPIKYGYAIAGRVIDIGPGVEQFQIGDPVAALHPHQTIFTLPAHLVKRLPDTLDPALGGFYANVETALTICHDAAPRLGETVVVLGQGVVGLLVTQLLQRTGAQVIAVEPDAHRRALATQFGATTLAQADPATIAELTDGRGADIVVEVSGSPAALQQAIELTATEGLVVVASWYGQKPAPLILGGHFHRGRVRLRSSQVGRLAPETLPRWDYARRSATVMNLLPRLCLNELISHRIPFVQAAAAYDLLDQAPPGLVQVMLTYADYAPQT” as the sequence, how does the “soluble on expression in E. coli” value read?
The value was “not soluble”.

Which “soluble on expression in E. coli” value does the source give for “MALAEEDVHMIIKQVLDEVVGASTQYTHKDSVQWNQKAVEQITKKLVAAGKPYKYVVTSSFLQISSGSGLNVSTISYWNKVTDSSYMYRWEAKTMLAIVYVFAIAI” here?
Its value is “not soluble”.

Which “soluble on expression in E. coli” value does the source give for “MGSDKIHHHHHHMNFDVAIIGGGLAGLTCAIALQQRGKRCVIINNGQAAIDFASGSLDLLSRMPSTTYGENRAVENLKENITALRNELPAHPYSLLGAEKVLAKAQDFERLANELHLDLIGSTEKNHWRVTGLGSLRGAWLSPNSVPTVQGNEPFPHKRIAVLGIEGYHDFQPQLLAANLVLNPQFEHCEVTSGFLNIPQLDELRKNAREFRSVNISQLLEHKLAFKDLVKEIIESAQGAEAVFLPACFGLENQEFMTALRDATKLALFELPTLPPSLLGMRQRIQLRHKFESLGGLMINGDSALNATFEGNQVRCINTRLLEDEEITADNFVLASGSFFSKGLISEFDKIYEPVFESDIIGVEGFNNKDRFTWTAHRFAHPQPYQSAGVAINAQCQVKKCGQFLTNLYAVGNVIGGFNALELGCGSGVAVVTALAVADEILAK” here?
Its value is “not soluble”.

Which “soluble on expression in E. coli” value does the source give for “MSEQQPNLRERRRSETRRLVQAHAVRLFTDHGYDAVTVADVAEAAGVSAMTVYRHFPTKEDLVLIDQPAQLIAEHVAASSAAQPLVRRVGSALIDAATNWTGGNGDEQAANERFLLDCLRLMVSTPALRARHLDSQYALQQAIVDALGDDATGPDAAFRAQAATSACIAAMHTALTRWVEDDGHTKLPDLIARALTASFGDDAVATRRKG” here?
Its value is “not soluble”.

Which “soluble on expression in E. coli” value does the source give for “MSLQSSEAIDTEPKTISPVPEGRPVLVLDLDETCIYSTPAKPEKQQNFPIRIKRRNVFIQVRPGMQECIRRLSEKYEIFFYTASTKIYANKVIDAIAPFVDNEHRFFVSRDQLKDLTLINRPLGKVLLLDNSACSAQKNNLLLIKTWIGDPNDNAFTNEVMPLLDNLVKESDIPSACRNLVSSRRYPSLYVIRSEGHHHHHH” here?
Its value is “soluble”.

With “MSLTWYHELGIKYPLFQGGMAWASNAELVAAVSNNGALGIIGSGGRTANELRRMIRKTKTLTSQPFGVNLMLLDKNIKQLLEVICEEKISVVTTGAGSPKEIIDTIIANNIKLFPVVPNKEIALKMLNLPISGIIVEGNEAGGHVGSQNLASLLKEIAPICPLPLIAAGGIYDHHTASLANILGANGVQVGTAFLLAKECQISPIYQELICKGEENGTSLISDKNGHLTRLLNISSEYPLNKSLKAAVEKGDLINGAFMAGSSSAYLEKIEPVENIIQRIMKKEGHHHHHH” as the sequence, how does the “soluble on expression in E. coli” value read?
Its value is “not soluble”.
